According to patent US20260028401A1 (SHENGHE CHINA BIOPHARMACEUTICAL, published 2026):

Assays:
[1] = target: T1, Human LILRB2/CD85d/ILT4 Protein, His Tag (Manufacturer: KACTUS, Cat: LIL-HM4B2) (human, UniProt Q8N423 22-460, limits assumed); experiment: BLI (ForteBio, AHC biosensors), ILT4 His protein loaded as written, antibody at 100 nM, 180 s association, 200 s dissociation; non-humanized antibody of the invention
T1 construct: Bought recombinant protein; not shown: His tag
Procedure: AHC Biosensors (Manufacturer: ForteBio. Inc., Cat: 18-5060) were pre-wetted for 20 min using PBST buffer and added to Human LILRB2/CD85d/ILT4 Protein, His Tag (Manufacturer: KATUS, Cat: LIL-HM4B2) protein diluted to 20 μg/mL using PBST to a target protein loading thickness of 1 nm. The antibody of the present invention and the antibody (humanized antibody) of the present invention (VHH and Fc sequences were SEQ ID NO: 6 and SEQ ID NO: 7, respectively) was diluted to 100 nM using PBST and added to the above sensor, and bound for 180 s and dissociated for 200 s.

[2] = target: T2, ILT4 on CHO-ILT4 cells (Manufacturer: Kang Yuan Bochuang, Cat: KC-1473) (UniProt Q8N423 22-597, limits assumed); experiment: flow cytometry on CHO-ILT4 cells, 7-point 5-fold titration, anti-VHH PE detection
T2 construct: whole, on cells; also called ILT4 cell line
T2 sequence (Q8N423 22-597 limits assumed): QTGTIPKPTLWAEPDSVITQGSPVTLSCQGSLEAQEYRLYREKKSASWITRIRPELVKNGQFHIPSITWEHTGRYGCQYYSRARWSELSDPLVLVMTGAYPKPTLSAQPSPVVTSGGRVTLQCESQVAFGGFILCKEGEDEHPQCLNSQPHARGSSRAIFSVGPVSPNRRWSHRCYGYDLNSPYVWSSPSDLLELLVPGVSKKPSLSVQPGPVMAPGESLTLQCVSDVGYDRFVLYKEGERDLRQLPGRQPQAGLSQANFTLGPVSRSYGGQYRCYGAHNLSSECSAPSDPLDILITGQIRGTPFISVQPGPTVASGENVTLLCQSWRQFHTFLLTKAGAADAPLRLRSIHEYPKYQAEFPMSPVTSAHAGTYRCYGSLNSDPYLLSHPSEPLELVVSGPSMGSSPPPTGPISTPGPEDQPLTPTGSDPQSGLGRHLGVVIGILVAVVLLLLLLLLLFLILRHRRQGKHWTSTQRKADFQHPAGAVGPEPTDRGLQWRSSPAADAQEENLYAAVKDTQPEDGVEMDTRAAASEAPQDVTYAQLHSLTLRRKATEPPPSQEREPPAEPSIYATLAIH

T1 sequence (Q8N423 22-460 limits assumed): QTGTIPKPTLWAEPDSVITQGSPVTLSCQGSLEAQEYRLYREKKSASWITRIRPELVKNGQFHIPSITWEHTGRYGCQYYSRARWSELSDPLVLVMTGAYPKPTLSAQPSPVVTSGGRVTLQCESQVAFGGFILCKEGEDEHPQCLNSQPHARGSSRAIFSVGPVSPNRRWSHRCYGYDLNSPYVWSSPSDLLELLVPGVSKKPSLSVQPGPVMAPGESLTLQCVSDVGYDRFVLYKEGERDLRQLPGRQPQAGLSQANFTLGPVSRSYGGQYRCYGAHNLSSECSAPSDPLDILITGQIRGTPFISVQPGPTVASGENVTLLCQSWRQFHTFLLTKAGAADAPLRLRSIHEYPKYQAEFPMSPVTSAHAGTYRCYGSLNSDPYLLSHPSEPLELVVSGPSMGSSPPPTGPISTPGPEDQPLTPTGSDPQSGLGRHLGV

Kd [1]: 0.107 nM
EC50 [2]: 0.36 µg/mL
B1: the antibody of the present invention (anti-ILT4 single-domain antibody, alpaca VHH, SEQ ID NO: 4) (VHH)
VHH: EVQLVESGGGLGQAGGSLRLSCVVSGRTFSRYAMGWFRQAPGKEREFVAAISWSPGDITTYADSVRGRFTISRDNAKNTVYLQMNSLKPEDTAVYYCAADPTAWGTQYDYWGQGTQVTVSS
notes: VHH screened from an alpaca immune library
